Assay [1] relates to MCF-7 adhesion to fibronectin. Briefly: Adhesion to extracellular matrix proteins assay, MCF-7. It counts as cell-based, human. How it is done: (§1) Adhesion to extracellular matrix proteins assay—The assay was done using the CYTOMATRIX™ screening kit from CHEMICON® (Kit #ECM205, Temecula, Calif.). The kit contains 96-well plates with strips coated with fibronectin, vitronectin, laminin, collagen-I, or collagen-IV. Subconfluent cell cultures were used for these studies. Cells (1×10^6 cells/mol) were seeded onto coated substrate and incubated at 37° C. for 1 hour in a CO2 incubator in PBS containing Ca^2+/Mg^2+ (200 μL per well). Adherent cells were fixed and stained. The plate was washed to remove unadhered cells and stained with 100 μL per well of MTS (Cell Titer Aq 96, PROMEGA®, Madison, Wis.) for 5 minutes at room temperature. Excess stain was removed with three PBS washes. Solubilization buffer [100 μL of a 50:50 mixture of 0.1 mol/L NaH2PO4 (pH 4.5) and 50% ethanol] was added to each well. Relative attachment was determined using absorbance readings (A540 nm-A570 nm).

For another assay, the system named is granulocytes. The assay can be described thus: Granulocyte reactivity, whole-blood indirect fluorescent flow cytometric analysis. It counts as binding. How it is done: (§2) Hybridoma supernatants were screened for CEA reactive antibody by the ROCHE® ^125I-CEA radioimmunoassay (RIA) in 0.01 and 0.10 M NH4 acetate buffer. Positive clones were recloned. The granulocyte reactivity of CEA-reactive MAb was determined by whole-blood indirect fluorescent flow cytometric analysis (Sharkey et al. Cancer Res., 1990, 50:2823-31). Two MAb with properties similar to those of NP-2 and NP-3, designated MN-2 and MN-6, were selected for additional development.
Immunoreactivity with blood lymphocytes was determined by live-cell indirect immunofluorescence, with the use of the whole blood staining method developed for use with the ORTHO SPECTRUM® I11 flow cytometer (Ortho Diagnostic Systems, Inc., Raritan, N.J.). Tissue reactivity of the MAb was determined by immunohistologic examination performed on frozen sections and 5-μm sections cut from tissue embedded in Paraplast-II. Indirect immunofluorescence on frozen sections was performed as previously described, with MAb concentrations of 20 μg/ml (Pawlak-Byczkowska et al., Cancer Res 1989, 49:4568-77).

For a further assay, the target named is T1, CEA (Homo sapiens, UniProt P06731).
T1 sequence (P06731 35-676): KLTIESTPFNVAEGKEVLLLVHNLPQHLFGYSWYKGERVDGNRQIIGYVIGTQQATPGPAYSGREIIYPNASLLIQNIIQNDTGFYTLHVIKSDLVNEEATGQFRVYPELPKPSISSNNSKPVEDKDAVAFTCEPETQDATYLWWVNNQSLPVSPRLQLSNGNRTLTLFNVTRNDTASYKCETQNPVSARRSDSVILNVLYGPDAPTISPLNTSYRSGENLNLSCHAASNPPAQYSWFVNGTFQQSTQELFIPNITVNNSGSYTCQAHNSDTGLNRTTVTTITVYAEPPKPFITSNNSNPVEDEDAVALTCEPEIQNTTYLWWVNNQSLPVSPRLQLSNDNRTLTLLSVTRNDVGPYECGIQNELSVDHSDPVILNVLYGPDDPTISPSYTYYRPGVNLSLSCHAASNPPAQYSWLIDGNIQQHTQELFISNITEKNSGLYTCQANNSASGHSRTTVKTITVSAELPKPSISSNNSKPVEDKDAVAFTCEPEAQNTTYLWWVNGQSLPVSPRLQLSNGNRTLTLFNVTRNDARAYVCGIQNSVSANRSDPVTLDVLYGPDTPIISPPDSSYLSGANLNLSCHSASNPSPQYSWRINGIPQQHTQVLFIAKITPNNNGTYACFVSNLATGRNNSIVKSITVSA
The assay can be described thus: Competitive CEA binding against HRP-labeled murine MN-15. The note with it: competition with HRP-labeled murine MN-15. An excerpt: To make a chimeric MN-15 antibody, the murine MN-15 variable region sequences were attached to human IgG1 constant region sequences, as described in Leung et al., Hybridoma 13:469 (1994). The sequences of the murine MN-15 VK (SEQ ID NO:9) and MN-15 VH (SEQ ID NO:10) used to construct the chimeric MN-15 (cMN-15) are shown in FIG. 2 and FIG. 3.

In assay [2] the test system is BXPC3 binding to fibronectin. Briefly: Adhesion to extracellular matrix proteins assay, BXPC3. It counts as cell-based, human. How it is done: as §1
The next assay deals with T2, ^125I-CEA (Homo sapiens, UniProt P06731).
T2 construct: purchased ROCHE
T2 sequence (P06731 35-676): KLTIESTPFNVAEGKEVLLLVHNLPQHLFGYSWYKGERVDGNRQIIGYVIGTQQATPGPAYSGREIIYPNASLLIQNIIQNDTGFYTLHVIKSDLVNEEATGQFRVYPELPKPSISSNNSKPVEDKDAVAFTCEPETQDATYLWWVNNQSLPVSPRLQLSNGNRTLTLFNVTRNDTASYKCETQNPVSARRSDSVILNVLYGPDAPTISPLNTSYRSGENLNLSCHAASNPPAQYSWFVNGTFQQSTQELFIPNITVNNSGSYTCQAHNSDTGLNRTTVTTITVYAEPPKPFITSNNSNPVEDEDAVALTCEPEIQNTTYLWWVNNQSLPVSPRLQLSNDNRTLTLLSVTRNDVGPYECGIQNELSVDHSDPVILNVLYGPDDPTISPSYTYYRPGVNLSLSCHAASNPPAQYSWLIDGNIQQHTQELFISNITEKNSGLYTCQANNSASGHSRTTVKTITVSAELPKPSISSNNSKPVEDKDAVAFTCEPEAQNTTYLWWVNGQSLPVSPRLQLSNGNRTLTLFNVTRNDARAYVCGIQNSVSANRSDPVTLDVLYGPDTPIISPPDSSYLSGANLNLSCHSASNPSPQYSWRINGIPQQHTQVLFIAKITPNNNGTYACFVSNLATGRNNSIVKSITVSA
Briefly: ROCHE 125I-CEA radioimmunoassay (RIA). The format is binding. Conditions: 0.01 and 0.10 M NH4 acetate buffer. On the procedure:
as §2

In the next assay the test system is CaPAN-1 cells. Briefly: Collagen-based invasion assay, CaPAN-1. The format is cell-based, human. The note with it: 10% FBS chemoattractant, 72-hour incubation. How it is done: Collagen-based invasion assay—The assay was done using CHEMICON® Kit (#ECM551, MILLIPORE®, Billerica, Mass.). Tumor cells at 80% confluence and were serum-starved for 18 to 24 hours before the assay was used. Cells were harvested with 5 mol of 2 mmol/L EDTA/PBS per 100-mm dish and incubated at 37° C. for 5 to 15 minutes. Cells were collected into 10 to 20 mol of quenching medium (serum-free DMEM containing 5% BSA) to inactivate trypsin/EDTA from the harvesting buffer. Cells were pelleted, resuspended in quenching medium (1×10^6 cells/mol), and appropriate antibody Fabs were added to individual cell aliquots. Cell invasion potential was determined as follows. Baseline invasion and invasion in the presence of a chemoattractant (10% FBS) were measured after a 72-hour incubation period at 37° C. in a 5% CO2 incubator. The bottom side of the collagen-coated polycarbonate membrane insert of the invasion chamber was placed in 400 μL of cell stain for 20 minutes at room temperature and washed. The dye was extracted and transferred into a 96-well microtiter plate for colorimetric measurements (A560 nm).

Entries after “also recorded” stand apart in the source; their conditions may differ.

B1: MN-15: murine Class I anti-CEA MAb, IgG1 kappa, binds A1B1 domain of CEACAM5 and CEACAM6 (antibody, V domains shown)
VL: DIQLTQSPAIMSASPGEKVTMTCSASSRVSYIHWYQQKSGTSPKRWIYGTSTLASGVPARFSGSGSGTSYSLTISSMEAEDAATYYCQQWSYNPPTFGAGTKLELKR
VH: EVRLVESGGGLVQGPGSLRLSCAASGFALTDYYMSWVRQSPGKTLEWLGFIANKANGHTTDYSPSVKGRFTISRDNSQTILYLQMNTLRTEDSATYYCARDMGIRWNFDVWGQGTTVTVSS
For B1, the “decrease of adhesion to fibronectin” value in assay [1] stood at 29%. In addition, the granulocyte reactivity result in the assay with granulocytes is reported as “granulocyte-reactive; also recorded: high granulocyte reactivity; also recorded: reacted strongly with granulocytes”. For the same molecule, the dissociation constant result with CEA is “nanomolar range”. In assay [2], the “effect on binding to fibronectin” value is recorded as “not affecting the binding”. Moreover, in the assay with ^125I-CEA, the “ion sensitivity of CEA binding / reactivity with ion-sensitive CEA determinant” value is given as “binding to epitopes of the ion-sensitive CEA determinant”.

B2: MN-15 Fab′: monovalent Fab′ fragment of murine MN-15 (antibody, V domains shown)
VL: DIQLTQSPAIMSASPGEKVTMTCSASSRVSYIHWYQQKSGTSPKRWIYGTSTLASGVPARFSGSGSGTSYSLTISSMEAEDAATYYCQQWSYNPPTFGAGTKLELKR
VH: EVRLVESGGGLVQGPGSLRLSCAASGFALTDYYMSWVRQSPGKTLEWLGFIANKANGHTTDYSPSVKGRFTISRDNSQTILYLQMNTLRTEDSATYYCARDMGIRWNFDVWGQGTTVTVSS
In the case of B2, in the assay on CaPAN-1 cells, the “reduction in cell invasion” value came out at 73%.
